Drawing on the supplement of paper PMC12042874, this text covers amyloid nucleation score for 139 substances.

± gives the uncertainty stated by the source.

A short description of the data set: amyloid nucleation score (Sup35N fusion, yeast selection) (log enrichment); library NNK2; higher = more nucleation; inactive = no reads after selection. An outline of the steps:
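Using DiMSum, nucleation scores were taken as the log enrichment of output over input reads, centred on the mode score of non-aggregating sequences. The input and output reads came from Illumina sequencing of plasmid inserts, with sequences under 100 input reads excluded. The yeast were psi-negative, expressed Sup35N fused to peptides of 20 random codons, were induced with 100 μM copper sulfate for 24 hours, and were grown 7 days at 30°C on medium lacking adenine and uracil.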
Take AMSSA: the amyloid nucleation score stood at 0.906 ± 0.52.

Turning to WSDACSGCNFK, the amyloid nucleation score result was “inactive”. To TGCVDVAEMVNP belongs 0.138 ± 0.48; to SFDIPT, -0.444 ± 0.63. To YTPHYLQCRLFCIPLRLNRS belongs -1.09 ± 0.49. Then PVHSAVATVLTLVNGKIGGA, with 1.24 ± 0.48. Regarding LDPNSYHKSRWFNMMSFIRV, the amyloid nucleation score worked out at 0.611 ± 0.81. Then DYVMYPGLVAMLSVSTPSQE, with 0.477 ± 0.49. To MIIMQANDP belongs -0.302 ± 0.76; to MYCYRNFLSDDINRGGALVM, -0.998 ± 0.74. Regarding SKFFCVSSVRFRLCVWG, the amyloid nucleation score was -0.14 ± 1. Then NVCRVDMAEKFGSFRLCN, with -0.846 ± 0.34; and ITMSYTLGPSCFFWSLADTY, with 8.218 ± 0.065; and INGNFVIKKCYRGYVS, with -0.557 ± 1.1.

RFLLQS displayed an amyloid nucleation score of -0.39 ± 0.61. To FVSLVWKTLKVSRSIVSNFD belongs 2.74 ± 0.15. Then ERTCSIRDPNRDIPGFPFSY, with “inactive”; and WMYTSRPNSSQTIRGWRATY, with -0.046 ± 0.39. As to TGGGATLRRILRHLSVGSDR, the amyloid nucleation score is -0.005 ± 0.79. As for SCNQDYTDSLSRAELKVDSS, the amyloid nucleation score is -1.07 ± 0.62. To SSKLLYM belongs -0.059 ± 0.55; to YLSGYRLRTVVAVDTGMWYV, 2.65 ± 0.13; to SHNDISSRC, -0.795 ± 0.49. Then LYDIWEDGSITLFCYSYQHH, with 8.969 ± 0.037; and FYWRFTFRLVCRFCYTRHLK, with -0.522 ± 0.35; and TNSSRISLNLGVLRGAQKDS, with -1.08 ± 0.45.

As for LPIRWVVVGEGSGVGRVWTW, the amyloid nucleation score is 0.227 ± 0.3. YIAILFYMC: the amyloid nucleation score was 7.2 ± 0.044. Then LGPTVYDFLHMCFYFRA, with 4.74 ± 0.065; and LLPSGIIH, with -0.815 ± 0.5; and TNTSFQRCGLWLTMGYGRYH, with -0.286 ± 0.3. To TADLDIDGPVS belongs 4.64 ± 0.094; to LALNLQNCTRGGFTILTVS, “inactive”. In turn, GQYKTGVRGSRLNLPLMLTE came in with an amyloid nucleation score of 0.328 ± 0.19. Then GNLDDTSLYCLYSLVSSRCS, with 0.373 ± 0.29; and CVSVPFYQVCFVGPKMEPLG, with 0.636 ± 0.18; and YSDKHM, with -1.27 ± 0.64. Then FFQGSVSLCFQASHQWSFLI, with 3.06 ± 0.11; and SHCGHRSATGVLSPLQTKGH, with -0.159 ± 0.54. To NVLDVGVGRTFVFK belongs -0.291 ± 0.79. Take FFRVRPFISYYWHTLLSVLW: the amyloid nucleation score is -1.24 ± 1.1.

For the substance AFEFIPSKPRW, the amyloid nucleation score turned out to be 0.667 ± 0.66. Then WSGWSQGDGLVQGQVMRAFV, with -0.284 ± 0.79; and QFCCVESLGLLALAWLFTGF, with 3.62 ± 0.11; and NSSMTRLGNTYLYHNNLHLV, with -1.25 ± 0.76. In turn, TDSYPVLDLHPGSYRVH registered an amyloid nucleation score of 0.397 ± 0.39. To ESLWMRTLMNVHYSDFRVTV belongs -0.174 ± 0.22; to RIDILGVTRWN, 0.633 ± 0.3. Substance LNKMECPCLFCVCVAFVIEW had an amyloid nucleation score of 5.38 ± 0.067.

In the case of YFDSEPCLHFPCLVEGFRGW, the amyloid nucleation score was -0.54 ± 1.1.

For the substance FSFSCEGANFDVYTGMWQGS, the amyloid nucleation score was -0.073 ± 0.45. Then FFGICDVYSDMNFPIYTAY, with “inactive”. Then PRVGRRGSLRKCPWLLWYVL, with 0.052 ± 0.45. GSWLLGMMVLQRILMNG had an amyloid nucleation score of 1.41 ± 0.44. VWLTKIIGPVRKLVKNTLGC had an amyloid nucleation score of 5.542 ± 0.047. Take YNWHMSHFYDLGP: the amyloid nucleation score was 4.99 ± 0.099. To MKGACLRGYEVLSMGQSTSY belongs 0.404 ± 0.8.

Consider TPMFHILLYFLNWCYCILVA, for which the amyloid nucleation score is 0.165 ± 1.

The substance EALMSSTIYYVPCSRHLIMF had an amyloid nucleation score of -0.576 ± 0.63.

For RTFYFYGRHR, the amyloid nucleation score is -1.11 ± 1.1. To QIFVR belongs 0.689 ± 0.55; to QCYVIYS, 4.513 ± 0.029. Then RCWAAHYVDTWACNSLAVII, with 1.19 ± 0.68; and ILATSRVILVFCAMCACRWG, with 2.98 ± 0.062; and VRMWRGE, with 0.083 ± 0.49. To ILYKYETLMLFLSSEYNVIC belongs 3.9 ± 0.039.

In the case of ALVAWVVSYYLALLCSPRQS, the amyloid nucleation score was -0.1 ± 0.74. Then HLLHVSGLDEIEMWTGDF, with -0.332 ± 0.39; and VSCVCHYVNNFNPMLCNRKC, with -0.064 ± 0.8; and RFRGGSKSGLYFIVCISDVW, with -0.758 ± 0.44.

MGSFKC came in with an amyloid nucleation score of -1.32 ± 0.63. To LCRYFQN belongs 0.218 ± 0.8. To NKSGDSQLLRVYYIVLVFMW belongs -1.08 ± 0.62.

The substance VNWLCRSWRSNRSLEG registered an amyloid nucleation score of 4.33 ± 0.087. Then GLNYIARMSQN, with 0.392 ± 0.3; and FYRGLVDHRMNFITFNCGRQ, with 5.6 ± 0.095; and WRYGNDYTFLIMDGC, with -0.511 ± 0.37.

Substance SKGSWIDVSYDLV showed an amyloid nucleation score of -0.132 ± 0.37. To PCVPGDYTVAKVAFSTY belongs -0.011 ± 1.1; to TCPCRYLDVNIDAMFVTMDI, 7.789 ± 0.056.

The substance EKRNVVVHLIGRWSTTLYWV yielded an amyloid nucleation score of 1.25 ± 0.49.

For the substance SSLWSGPKVIQDY, the amyloid nucleation score is -0.122 ± 0.28. As to WLVSSVSCQPMSQSSFVGGL, the amyloid nucleation score was 5.498 ± 0.05.

The substance DDVYNSGYKELIRSQ displayed an amyloid nucleation score of 0.348 ± 0.25.

IMFMGNTVIRDCDLQ had an amyloid nucleation score of 4.32 ± 0.062. Then TFMRKCIFMFLFVIFSFYSS, with 2.03 ± 0.11; and TNRGSQNGLMFFDRSWKGYG, with -0.467 ± 0.5.

Consider LLVAALSHGPGISRSVNSHP, for which the amyloid nucleation score is 5.91 ± 0.061. The substance YNQTVCDFLGKRLWGDVWRS displayed an amyloid nucleation score of 0.26 ± 0.36. Then NIVQEHTTCTEVRGVSALAR, with 0.436 ± 0.66; and RLIACIRIVSVVVNAVSLKG, with 1.79 ± 0.42. With KGNAVVSWDRS, the amyloid nucleation score was determined as 2.36 ± 0.1. To VKGVWWYRIMS belongs 0.785 ± 0.51; to SKDMCRRCCIRNLRRMSDSN, -0.443 ± 0.26; to MGHRFLLRRLSFIADLLV, -1.12 ± 1. Then LAMYLWCTELP, with -0.057 ± 0.63. Then TIYMMSRDFRF, with 4.748 ± 0.028; and GLTLFVRSLALRNYVCDWSP, with 0.149 ± 0.36.

Regarding MVFKRPHVWFDTTTFEFGMV, the amyloid nucleation score was 0.732 ± 0.43. Then TEGHVNSQIRWNLVY, with -0.348 ± 0.36; and NNFRWNVMVCYAFQGYSGVK, with 2.64 ± 0.068; and IWTSRQTTIEAITRAHNPST, with 3.83 ± 0.084. To SHRCELKWTGLVMNYKVVHC belongs 1.71 ± 0.25; to FCVIPIKGQRSLHIPVQLFG, -1.07 ± 0.76. To RNILPLARDSVVFNDCYDSG belongs 0.545 ± 0.33; to QYLSALSSAISGGDVYMMSK, 5.15 ± 0.065; to SMISWATMVSRRDYLYMCV, -0.216 ± 0.45.

In turn, SLKVHSWFGNIYSDFLLTSV registered an amyloid nucleation score of -0.55 ± 0.79. Turning to YFRNDNGLWEINSCRILFIV, the amyloid nucleation score entry was “inactive”. Then STDWNLRPGPSLRWLLSPAT, with 0.92 ± 0.45. Then CSMVNDLSFNIEARMQSWNS, with 0.028 ± 0.79. To HSFNPNTCYLKGIDDALLGF belongs -0.838 ± 0.62. For the substance WRRFRFLLPWSLRPMS, the amyloid nucleation score entry is “inactive”. To LMMSVWF belongs 5.48 ± 0.063; to DGFHLNALHLESRQLGVGFS, 3.87 ± 0.069; to RYFINSMFLGWTPFVSVNLS, -0.107 ± 0.27. Then NICIN, with “inactive”; and CLQVAKDADFCIKAVEERGW, with 2.42 ± 0.19. Then HPHIFDLVVIYCQNGHV, with 6.92 ± 0.075. In turn, NRLPFKYLSIDIYPCLASLA registered an amyloid nucleation score of -0.3 ± 0.26.

For the substance TALDAGHA, the amyloid nucleation score was -1.19 ± 0.45. To SEVHSWANGKVLTLYSRMWL belongs 0.885 ± 0.28. Then FSAEIRGTQRMLQRLSLYKR, with 1.61 ± 0.092.

As for QWSFPAILRLDTNTSRYYFQ, the amyloid nucleation score was -0.776 ± 1.1. The substance RAIDRRKVFARYVFWSFSWT displayed an amyloid nucleation score of -0.141 ± 0.33.

In turn, CLGGNHYHPSSTVTEQRYLT had an amyloid nucleation score of 0.859 ± 0.48. To FDGRETQENGNSYMCEGW belongs 0.419 ± 0.5; to IYNVSQLRTGTDMFNL, 0.721 ± 0.51. LVWPTYVGDQAGSCVPGVFP yielded an amyloid nucleation score of 4.51 ± 0.068.

With LVMTHAMFVSLWCGRTVFLL, the amyloid nucleation score was 0.014 ± 0.49.

The substance WFDKFRMCEEFAYYFFLPQW yielded an amyloid nucleation score of -0.856 ± 0.63. Then YFYITTCSGMSTDVFMNLLT, with -0.422 ± 1; and GGWYDPGCSGGDIITDEVDW, with -0.159 ± 0.55. To DCRFQIHVCDAYDK belongs “inactive”; to HPGMDF, “inactive”. To RYTCRLFTDTYDSSVVLGAM belongs 1.17 ± 0.37; to LYVVVRLISCYYGAFPSWNR, -0.316 ± 0.26; to VRLTMQYGHVYPGCSLLPYV, 4.75 ± 0.049. As to IRRFRGLTSRSTRCSKGSKG, the amyloid nucleation score was -0.072 ± 0.45.
